Data taken from the supplement of paper PMC9112550, “Optimization of the antimicrobial peptide Bac7 by deep mutational scanning” (BMC Biology, 2022).

System: Escherichia coli TOP10
Assay: shrunken log2 fold change of peptide-encoding DNA abundance (4.5 h post-induction vs induction); higher = less antimicrobial activity (less host growth inhibition)
Details: time post-induction: 4.5 h; library: site-saturation at positions 5, 18, 19, 20
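Further: peptides expressed intracellularly from a pBAD plasmid library in pooled LB shake-flask culture, induced with 0.3% L-arabinose, DNA abundance read by NGS, three biological replicates, DESeq2 with apeglm shrinkage.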

Row | Sequence | shrunken log2 fold change
1 | RRIRVRPPRLPRPRPRPWEPPRP | 0.13
2 | RRIRVRPPRLPRPRPRPWGEPRP | 0.136
3 | RRIRVRPPRLPRPRPRPWGGPRP | 0.307
4 | RRIRVRPPRLPRPRPRPWGLPRP | -0.159
5 | RRIRVRPPRLPRPRPRPWHTPRP | -0.33
6 | RRIRVRPPRLPRPRPRPWIIPRP | -0.652
7 | RRIRVRPPRLPRPRPRPWKCPRP | -0.173
8 | RRIRVRPPRLPRPRPRPWLHPRP | 0.215
9 | RRIRVRPPRLPRPRPRPWMHPRP | -0.406
10 | RRIRVRPPRLPRPRPRPWMQPRP | -0.106
11 | RRIRVRPPRLPRPRPRPWPRPRP | 0.183
12 | RRIRVRPPRLPRPRPRPWPVPRP | 0.197
13 | RRIRVRPPRLPRPRPRPWQQPRP | -0.097
14 | RRIRVRPPRLPRPRPRPWRNPRP | 0.065
15 | RRIRVRPPRLPRPRPRPWSVPRP | -0.0304
16 | RRIRVRPPRLPRPRPRPWTFPRP | -0.0163
17 | RRIRVRPPRLPRPRPRPWYTPRP | -0.507
18 | RRIRVRPPRLPRPRPRPYAHPRP | -0.38
19 | RRIRVRPPRLPRPRPRPYAMPRP | -0.11
20 | RRIRVRPPRLPRPRPRPYANPRP | 0.0231
21 | RRIRVRPPRLPRPRPRPYDCPRP | -0.9
22 | RRIRVRPPRLPRPRPRPYDNPRP | -0.199
23 | RRIRVRPPRLPRPRPRPYECPRP | -1.34
24 | RRIRVRPPRLPRPRPRPYEMPRP | -0.311
25 | RRIRVRPPRLPRPRPRPYFVPRP | 0.263

Row | Sequence | shrunken log2 fold change
26 | RRIRVRPPRLPRPRPRPYHHPRP | -0.0938
27 | RRIRVRPPRLPRPRPRPYIGPRP | -0.661
28 | RRIRVRPPRLPRPRPRPYIMPRP | -0.937
29 | RRIRVRPPRLPRPRPRPYKVPRP | -0.0222
30 | RRIRVRPPRLPRPRPRPYLHPRP | -0.879
31 | RRIRVRPPRLPRPRPRPYNRPRP | -0.0579
32 | RRIRVRPPRLPRPRPRPYPFPRP | -0.863
33 | RRIRVRPPRLPRPRPRPYPPPRP | -0.103
34 | RRIRVRPPRLPRPRPRPYPQPRP | -0.349
35 | RRIRVRPPRLPRPRPRPYQPPRP | -0.509
36 | RRIRVRPPRLPRPRPRPYREPRP | -0.3
37 | RRIRVRPPRLPRPRPRPYTEPRP | -0.42
38 | RRIRVRPPRLPRPRPRPYTMPRP | -0.49
39 | RRIRVRPPRLPRPRPRPYVSPRP | -0.084
40 | RRIRVRPPRLPRPRPRPYWEPRP | -0.508
41 | RRIRWRPPRLPRPRPRPAEQPRP | -0.00651
42 | RRIRWRPPRLPRPRPRPAGGPRP | 0.379
43 | RRIRWRPPRLPRPRPRPAHPPRP | 0.304
44 | RRIRWRPPRLPRPRPRPAKDPRP | 0.0218
45 | RRIRWRPPRLPRPRPRPAKIPRP | 0.132
46 | RRIRWRPPRLPRPRPRPAKYPRP | -0.183
47 | RRIRWRPPRLPRPRPRPALVPRP | 0.98
48 | RRIRWRPPRLPRPRPRPAMEPRP | 0.348
49 | RRIRWRPPRLPRPRPRPANCPRP | 0.0179
50 | RRIRWRPPRLPRPRPRPAPDPRP | 1.14

Row | Sequence | shrunken log2 fold change
51 | RRIRWRPPRLPRPRPRPAPEPRP | 0.603
52 | RRIRWRPPRLPRPRPRPAQLPRP | 1.63
53 | RRIRWRPPRLPRPRPRPAQYPRP | 0.122
54 | RRIRWRPPRLPRPRPRPARQPRP | 0.0282
55 | RRIRWRPPRLPRPRPRPATIPRP | -0.0366
56 | RRIRWRPPRLPRPRPRPATLPRP | -0.0879
57 | RRIRWRPPRLPRPRPRPAVDPRP | 0.174
58 | RRIRWRPPRLPRPRPRPAYLPRP | -0.108
59 | RRIRWRPPRLPRPRPRPAYYPRP | -0.157
60 | RRIRWRPPRLPRPRPRPCAGPRP | 0.0556
61 | RRIRWRPPRLPRPRPRPCCKPRP | 0.0725
62 | RRIRWRPPRLPRPRPRPCDIPRP | -0.143
63 | RRIRWRPPRLPRPRPRPCDRPRP | -0.0349
64 | RRIRWRPPRLPRPRPRPCDVPRP | -0.00226
65 | RRIRWRPPRLPRPRPRPCECPRP | -0.151
66 | RRIRWRPPRLPRPRPRPCEHPRP | 0.0123
67 | RRIRWRPPRLPRPRPRPCEPPRP | -0.27
68 | RRIRWRPPRLPRPRPRPCEQPRP | 0.263
69 | RRIRWRPPRLPRPRPRPCFIPRP | -0.423
70 | RRIRWRPPRLPRPRPRPCGFPRP | 0.395
71 | RRIRWRPPRLPRPRPRPCGMPRP | 0.259
72 | RRIRWRPPRLPRPRPRPCGVPRP | 0.0164
73 | RRIRWRPPRLPRPRPRPCIGPRP | -0.148
74 | RRIRWRPPRLPRPRPRPCIIPRP | -0.222
75 | RRIRWRPPRLPRPRPRPCKAPRP | -0.0863

Row | Sequence | shrunken log2 fold change
76 | RRIRWRPPRLPRPRPRPCKFPRP | -0.24
77 | RRIRWRPPRLPRPRPRPCNCPRP | -0.289
78 | RRIRWRPPRLPRPRPRPCNMPRP | -0.179
79 | RRIRWRPPRLPRPRPRPCNNPRP | 0.00194
80 | RRIRWRPPRLPRPRPRPCNVPRP | -0.00213
81 | RRIRWRPPRLPRPRPRPCPCPRP | -0.273
82 | RRIRWRPPRLPRPRPRPCPVPRP | -0.249
83 | RRIRWRPPRLPRPRPRPCPYPRP | -0.271
84 | RRIRWRPPRLPRPRPRPCRSPRP | 0.0427
85 | RRIRWRPPRLPRPRPRPCSWPRP | 0.0533
86 | RRIRWRPPRLPRPRPRPCVIPRP | -0.059
87 | RRIRWRPPRLPRPRPRPDCLPRP | 0.166
88 | RRIRWRPPRLPRPRPRPDDKPRP | -0.139
89 | RRIRWRPPRLPRPRPRPDERPRP | -0.00133
90 | RRIRWRPPRLPRPRPRPDFTPRP | 0.15
91 | RRIRWRPPRLPRPRPRPDGIPRP | 0.151
92 | RRIRWRPPRLPRPRPRPDGLPRP | 0.393
93 | RRIRWRPPRLPRPRPRPDHCPRP | -0.00992
94 | RRIRWRPPRLPRPRPRPDHDPRP | 0.0812
95 | RRIRWRPPRLPRPRPRPDHLPRP | 0.08
96 | RRIRWRPPRLPRPRPRPDKFPRP | -0.427
97 | RRIRWRPPRLPRPRPRPDLAPRP | 0.953
98 | RRIRWRPPRLPRPRPRPDMAPRP | 0.204
99 | RRIRWRPPRLPRPRPRPDMWPRP | 0.228
100 | RRIRWRPPRLPRPRPRPDNTPRP | -0.25

Row | Sequence | shrunken log2 fold change
101 | RRIRWRPPRLPRPRPRPDPIPRP | -0.242
102 | RRIRWRPPRLPRPRPRPDQRPRP | 0.098
103 | RRIRWRPPRLPRPRPRPDRIPRP | 0.082
104 | RRIRWRPPRLPRPRPRPDRMPRP | 0.0163
105 | RRIRWRPPRLPRPRPRPDRWPRP | 0.827
106 | RRIRWRPPRLPRPRPRPDSHPRP | -0.126
107 | RRIRWRPPRLPRPRPRPDTCPRP | -0.0059
108 | RRIRWRPPRLPRPRPRPDTKPRP | 0.00587
109 | RRIRWRPPRLPRPRPRPDTPPRP | 0.126
110 | RRIRWRPPRLPRPRPRPDVKPRP | -0.26
111 | RRIRWRPPRLPRPRPRPDVPPRP | -0.177
112 | RRIRWRPPRLPRPRPRPDVTPRP | 0.0084
113 | RRIRWRPPRLPRPRPRPDWHPRP | -0.0337
114 | RRIRWRPPRLPRPRPRPDWWPRP | 0.0352
115 | RRIRWRPPRLPRPRPRPDWYPRP | -0.268
116 | RRIRWRPPRLPRPRPRPDYIPRP | -0.00749
117 | RRIRWRPPRLPRPRPRPDYTPRP | -0.0601
118 | RRIRWRPPRLPRPRPRPEAMPRP | 0.142
119 | RRIRWRPPRLPRPRPRPEDQPRP | 0.475
120 | RRIRWRPPRLPRPRPRPEECPRP | 0.158
121 | RRIRWRPPRLPRPRPRPEEKPRP | 0.584
122 | RRIRWRPPRLPRPRPRPEEMPRP | 0.013
123 | RRIRWRPPRLPRPRPRPEENPRP | -0.0122
124 | RRIRWRPPRLPRPRPRPEFQPRP | 0.118
125 | RRIRWRPPRLPRPRPRPEGHPRP | 0.792

Row | Sequence | shrunken log2 fold change
126 | RRIRWRPPRLPRPRPRPEHKPRP | 0.278
127 | RRIRWRPPRLPRPRPRPEHVPRP | 0.0199
128 | RRIRWRPPRLPRPRPRPEITPRP | 0.437
129 | RRIRWRPPRLPRPRPRPEPIPRP | 0.204
130 | RRIRWRPPRLPRPRPRPEQVPRP | 0.21
131 | RRIRWRPPRLPRPRPRPEQWPRP | 0.724
132 | RRIRWRPPRLPRPRPRPEQYPRP | -0.171
133 | RRIRWRPPRLPRPRPRPERCPRP | 0.449
134 | RRIRWRPPRLPRPRPRPERNPRP | -0.117
135 | RRIRWRPPRLPRPRPRPERSPRP | 0.317
136 | RRIRWRPPRLPRPRPRPESHPRP | 0.189
137 | RRIRWRPPRLPRPRPRPETWPRP | 0.502
138 | RRIRWRPPRLPRPRPRPEVFPRP | 1.35
139 | RRIRWRPPRLPRPRPRPEWRPRP | 0.439
140 | RRIRWRPPRLPRPRPRPFAWPRP | 0.179
141 | RRIRWRPPRLPRPRPRPFCHPRP | -0.0562
142 | RRIRWRPPRLPRPRPRPFDQPRP | -0.102
143 | RRIRWRPPRLPRPRPRPFFHPRP | -0.194
144 | RRIRWRPPRLPRPRPRPFHQPRP | -0.259
145 | RRIRWRPPRLPRPRPRPFHTPRP | -0.171
146 | RRIRWRPPRLPRPRPRPFIFPRP | -0.0639
147 | RRIRWRPPRLPRPRPRPFITPRP | -0.167
148 | RRIRWRPPRLPRPRPRPFKGPRP | -0.0135
149 | RRIRWRPPRLPRPRPRPFKQPRP | -0.104
150 | RRIRWRPPRLPRPRPRPFLKPRP | -0.4
